Reference: doi:10.1101/2024.10.30.620795 (2024)

T1: A*01/LTD peptide on A*01/LTD (human)
T1 peptide: LTDEMIAQY


Biological target: T1, A*01/LTD peptide on A*01/LTD
Test: activation reporter or marker

Binder	binding result
7156 (TCR) alpha TRAV29/DV5 TRAJ49 CDR3: CAASGGNQFYF beta TRBV5-5 TRBJ2-2 CDR3: CASSAPGGVDTGELFF	recognises
5458 (TCR) alpha TRAV29/DV5 TRAJ47 CDR3: CAATGGNKLVF beta TRBV5-5 TRBJ2-7 CDR3: CASSHPLGVSSYEQYF	recognises
11195 (TCR) alpha TRAV19 TRAJ32 CDR3: CALRYGGATNKLIF beta TRBV7-6 TRBJ1-2 CDR3: CASSLEGPYGYTF	recognises
509 (TCR) alpha TRAV12-1 TRAJ36 CDR3: CVVTDLFF beta TRBV27 TRBJ2-2 CDR3: CASSPRTGVAGELFF	recognises
3936 (TCR) alpha TRAV12-3 TRAJ33 CDR3: CAMRSNYQLIW beta TRBV27 TRBJ2-3 CDR3: CASSPSQGTQYF	recognises
7287 (TCR) alpha TRAV16 TRAJ17 CDR3: CALRSPAAGNKLTF beta TRBV27 TRBJ2-5 CDR3: CASSFAEGTQYF	recognises
684 (TCR) alpha TRAV38-1 TRAJ31 CDR3: CAFMKLGNNARLMF beta TRBV10-3 TRBJ1-5 CDR3: CAISGPEINQPQHF	recognises
8395 (TCR) alpha TRAV21 TRAJ45 CDR3: CAGGGGADGLTF beta TRBV6-6 TRBJ2-3 CDR3: CASSYPSPDTQYF	recognises
11949 (TCR) alpha TRAV35 TRAJ36 CDR3: CAGQLETGANNLFF beta TRBV10-3 TRBJ2-3 CDR3: CAINPGTSGRWGTDTQYF	recognises
6265 (TCR) alpha TRAV30 TRAJ49 CDR3: CGTAPLTGNQFYF beta TRBV18 TRBJ1-1 CDR3: CASSHSGTAYTEAFF	recognises
11751 (TCR) alpha TRAV21 TRAJ49 CDR3: CAVRPPGNQFYF beta TRBV6-4 TRBJ2-1 CDR3: CASSPVGTQGYNEQFF	recognises
10832 (TCR) alpha TRAV12-2 TRAJ53 CDR3: CAVNPRGGGSNYKLTF beta TRBV29-1 TRBJ2-7 CDR3: CSAQTAWPYEQYF	recognises
6808 (TCR) alpha TRAV17 TRAJ45 CDR3: CATKRGADGLTF beta TRBV6-5 TRBJ1-2 CDR3: CASSYGGDVYGYTF	recognises
4160 (TCR) alpha TRAV35 TRAJ21 CDR3: CAGLYNFNKFYF beta TRBV19 TRBJ1-1 CDR3: CASSTLRGDNRGTEAFF	recognises
11085.2 (TCR) alpha TRAV2 TRAJ6 CDR3: CAVEDPAGGSYIPTF beta TRBV20-1 TRBJ2-7 CDR3: CSARGATGDFYEQYF	recognises
5251 (TCR) alpha TRAV12-2 TRAJ53 CDR3: CAVNGGGGSNYKLTF beta TRBV29-1 TRBJ2-7 CDR3: CSVGTGWPYEQYF	recognises
841.2 (TCR) alpha TRAV25 TRAJ38 CDR3: CAGPINAGNNRKLIW beta TRBV6-5 TRBJ2-7 CDR3: CASSLDRVRGNSYEQYF	recognises
386 (TCR) alpha TRAV21 TRAJ52 CDR3: CAVRPGRGTSYGKLTF beta TRBV19 TRBJ2-3 CDR3: CASSMGAGGAADTQYF	recognises
11151 (TCR) alpha TRAV12-2 TRAJ53 CDR3: CAVNSGGSGGSNYKLTF beta TRBV29-1 TRBJ2-7 CDR3: CSAQQGWPYEQYF	recognises
201 (TCR) alpha TRAV19 TRAJ4 CDR3: CALSLSGGYNKLIF beta TRBV6-6 TRBJ2-7 CDR3: CASSQGVIDEQYF	recognises
1735 (TCR) alpha TRAV21 TRAJ11 CDR3: CAVTRGGYSTLTF beta TRBV12-3 TRBJ2-1 CDR3: CASSLGTGGIDEQFF	recognises
718 (TCR) alpha TRAV3 TRAJ45 CDR3: CAVRQTGGGADGLTF beta TRBV29-1 TRBJ2-2 CDR3: CSVPGLVYPGELFF	recognises

Binder	binding result
225 (TCR) alpha TRAV12-2 TRAJ41 CDR3: CAVGNSGYALNF beta TRBV11-2 TRBJ2-1 CDR3: CASLEGPGNEQFF	recognises
297 (TCR) alpha TRAV12-2 TRAJ33 CDR3: CAVSQGGVSNYQLIW beta TRBV29-1 TRBJ2-7 CDR3: CSVFTGWPYEQYF	recognises
5245 (TCR) alpha TRAV30 TRAJ34 CDR3: CGTEIRGKLIF beta TRBV27 TRBJ1-5 CDR3: CASSLGFPNQPQHF	recognises
6844 (TCR) alpha TRAV12-3 TRAJ33 CDR3: CAGRSNYQLIW beta TRBV30 TRBJ2-7 CDR3: CAWSPSGSPLEQYF	recognises
832 (TCR) alpha TRAV13-1 TRAJ6 CDR3: CAAGSSGGSYIPTF beta TRBV7-7 TRBJ2-1 CDR3: CASSLEGHRGLYNEQFF	recognises
5170 (TCR) alpha TRAV12-3 TRAJ33 CDR3: CAMRSNYQLIW beta TRBV6-1 TRBJ1-5 CDR3: CASSEAQGPQHF	recognises
6254 (TCR) alpha TRAV21 TRAJ10 CDR3: CAVGGGGGNKLTF beta TRBV11-2 TRBJ1-2 CDR3: CASSLLWVGDYGYTF	recognises
11253 (TCR) alpha TRAV21 TRAJ40 CDR3: CAVRGGFGSGTYKYIF beta TRBV28 TRBJ1-2 CDR3: CASRTTRANYGYTF	recognises
66 (TCR) alpha TRAV21 TRAJ41 CDR3: CAVQSSGSGYALNF beta TRBV5-5 TRBJ2-7 CDR3: CASTKGTDSYEQYF	recognises
6319 (TCR) alpha TRAV21 TRAJ22 CDR3: CAVKTSGSARQLTF beta TRBV27 TRBJ2-3 CDR3: CASSSPPISVATDTQYF	recognises
7734 (TCR) alpha TRAV21 TRAJ29 CDR3: CAVRAGNTPLVF beta TRBV6-2 TRBJ1-1 CDR3: CASSYTTGTVIPNTEAFF	recognises
8915 (TCR) alpha TRAV29/DV5 TRAJ49 CDR3: CAAWSRGTGNQFYF beta TRBV20-1 TRBJ2-1 CDR3: CSARDRWEGRTNEQFF	recognises
5576.2 (TCR) alpha TRAV12-3 TRAJ49 CDR3: CAMKRDQFYF beta TRBV6-2 TRBJ2-7 CDR3: CASRTIDLLAGEYEQYF	recognises
6548 (TCR) alpha TRAV12-3 TRAJ33 CDR3: CASRSNYQLIW beta TRBV6-1 TRBJ1-5 CDR3: CASSDAQAPQHF	recognises
7094 (TCR) alpha TRAV12-3 TRAJ33 CDR3: CAMRSNYQLIW beta TRBV30 TRBJ2-7 CDR3: CAWRLQGAGEQYF	recognises
5469 (TCR) alpha TRAV12-2 TRAJ53 CDR3: CAVNWGGGSNYKLTF beta TRBV29-1 TRBJ2-7 CDR3: CSVGQGWPYEQYF	recognises
7100 (TCR) alpha TRAV21 TRAJ43 CDR3: CAVRGGDMRF beta TRBV6-6 TRBJ2-7 CDR3: CASTNRGDISYEQYF	recognises
763 (TCR) alpha TRAV19 TRAJ32 CDR3: CALRYGGATNKLIF beta TRBV7-6 TRBJ1-2 CDR3: CASSLEGVGGYTF	recognises
11155 (TCR) alpha TRAV16 TRAJ37 CDR3: CALNSNTGKLIF beta TRBV27 TRBJ2-1 CDR3: CASSSFLLAGGGGNSNEQFF	recognises
6743 (TCR) alpha TRAV5 TRAJ15 CDR3: CAGSRTGTALIF beta TRBV27 TRBJ2-6 CDR3: CASSTGIVTGANVLTF	recognises
8483 (TCR) alpha TRAV21 TRAJ20 CDR3: CAVYFRSNDYKLSF beta TRBV20-1 TRBJ2-7 CDR3: CSATGTVNYEQYF	recognises
11870 (TCR) alpha TRAV12-1 TRAJ9 CDR3: CVVNRGTGGFKTIF beta TRBV27 TRBJ1-6 CDR3: CASMLASYNSPLHF	recognises
